Data published in the RNAGym collection of RNA variant scans (doi:10.1073/pnas.2313332121).
This sample holds only a part of the variants without activity.

B1: TPR 5TU (parent)
chain: GGAUCUUCUCGAUCUAACAAAAAAGACAAAUCUGCCACAAAGCUUGAGAGCAUCUUCGGAUGCAGAGGCGGCAGCCUUCGGUGGCGCGAUAGCGCCAACGUUCUCAACUAUGACACGCAAAACGCGUGCUCCGUUGAAUGGAGUUUAUCAUG

Variants of: B1
Experiment: polymerase ribozyme fitness, log enrichment relative to wild type (log ratio); higher = more active; in vitro selection for triplet polymerase activity
In short: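 Both subunits of a heterodimeric triplet polymerase ribozyme were given their own mutant library, built by PCR and transcribed. Each library was annealed with a biotinylated primer, the partner subunit and triplets, incubated frozen at −7 °C, and its extended constructs gel-excised, captured on streptavidin beads and amplified by RT-PCR, all in one round done in triplicate. Fitness is the logarithm of genotype enrichment relative to wild-type enrichment, with replicates averaged by inverse-variance weighting. That logarithm is base 2, and Illumina-sequenced genotypes needed ≥10 input reads and ≥1 read per output.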
With GGAUCUUCUCGAUCUAACAAAAAAGACAAAUCUGCCACAAAGCUUGAAAGCAUCUUCGGAUGCAGAGGCGGCAGCCUUCGGUGGAGCGUUAGCGCCAUCGUUCUCAACUAUGGCACACAAAACGCGUGCUCCGUUGAAUGGAGUUUAUCAUG the “polymerase ribozyme fitness (log ratio)” value was at most -4.2.
For GGAUCUUCUCGAUCUAACAAAAAAGACAAAUCUGCCACAAAGCUUGAAAGCAUCUUCGGAUGCAGAGGCGGCAGCCUUCGGUGGCGCGAUAGCGCCAACGUUCUCAGCUAUGACACGCAAAACGCGUGCUCCGUUGAAUGGAGUUUAUCAUG, the “polymerase ribozyme fitness (log ratio)” value was -4.08.
In the case of GGAUCUUCUCGAUCUAACAAAAAAGACAAAUCUGCCACAAAGCUUGAAAGCUUCUUCGGAUGCAGAGGCGGCAGCCUUCGGUGGCUCGAUAGCGCCAACGUUCUCAACUAUGACACGCAAAACGCGUGCUCCGUUGAAUGGAGUUUAUCAUG, the “polymerase ribozyme fitness (log ratio)” value is reported as at most -4.2.
In the case of GGAUCUUCUCGAUCUAACAAAAAAGACAAAUCUGCCACAAAGCUUGAAAGCAUCUUCGGAUGCAGAGGCGGCAGCGUUCGGUGGCGAGAAAGCGCCAACGUUCUCAACUAUGACACGCAAAACGCGUGCUCCGUUGAAUGGAGUUAAUCAUG, the “polymerase ribozyme fitness (log ratio)” value is reported as at most -4.2.
For GGAUCUUCUCGAUCUAACAAAAAAGACAAAUCUGCCACAAAGCUUGAAAGCAUCUUCGAGUGCAGAGGCGGCAGCCUUCGGUGGCGCGAUAGCGCCGACGUUCUCAACUAUGACACGCAAAACGCGUGCUCCGUUGAAUGGAGUUUAUCAUG, the “polymerase ribozyme fitness (log ratio)” value was -3.58.
With GGAUCUUCUCGAUCUAACAAAAAAGACAAAUCUGCCACAAAGCUUGAAACCAUCUUCGGAUGCAGAGGCGGCAGCCUUCGGUGGCGCGAUAGCGCCAACGUUCUCAACUAUGACACGCAAAACGCGUGCUCCGUUGAAUGGAGUUUAUCAUG the “polymerase ribozyme fitness (log ratio)” value was -3.83.
For GGAUCUUCUCGAUCUAACAAAAAAGACAAAUCUGCCACAAAGCUUGAAAGCAUAGUCUGAUGCAGAGGCGGCAGCCUUCGGUGGCGCGAUAGCGCCGACGUUCUCAACUAUGACACGCAAAACGCGUGCUCCGUUGAAUGGAGUUUAUCAUG, the “polymerase ribozyme fitness (log ratio)” value was -3.22.
For GGAUCUUCUCGAUCUAACAAAAAAGACAAAUCUGCCACAAAGCUUGAAAGUAUCUUCGGAUGCAGAGGCGGCAGCCUUCGGUGGCGCGAUAGCGCCAACGUUCUCAACUAUGACACGCAAAACGCGUGCUCCGUUGAAUGGAGUUUAUCAUG, the “polymerase ribozyme fitness (log ratio)” value was -1.05.
With GGAUCUUCUCGAUCUAACAAAAAAGACAAAUCUGCCACAAAGCUUGAAAGCAUCUUCGGAUGCAGAGGCGGCAGUCUUCGGUGGCGAGAUAGGGCCAACGUUCUCAACUAUGACACGCAAAACGCGUGCUCCGUUGAAUGGAGUUUAUCAUG the “polymerase ribozyme fitness (log ratio)” value was at most -4.2.
In the case of GGAUCUUCUCGAUCUAACAAAAAAGACAAAUCUGCCACAAAGCUUGAAAGCAUCUUCGCAUGCAGAGGCGGCAGCCUUCGGUGGCGCGAUAGCGCCAACGUUCUCAACUAUGACACGCAAAACGCGUGCUCCGUUGAAUGGAGUUUAUCAUG, the “polymerase ribozyme fitness (log ratio)” value is reported as -0.874.
With GGAUCUUCUCGAUCUAACAAAAAAGACAAAUCUGCCACAAAGCUUGAAAGCAUCUUCGAAUGCAGAGGCGGCAGCCUUCGGUGGCGCGAUAGCGCCAACGUUCUCAACUAUGACACGCAAAACGCGUGCUCCGUUGAAUGGAGUUUAUCAUG the “polymerase ribozyme fitness (log ratio)” value was -0.452.
In the case of GGAUCUUCUCGAUCUAACAAAAAAGACAAAUCUGCCACAAAGCUUGAAAGCAUCUUCGGAUGCAGAGGCGGCAGCCUUCGGUGGCGCGAUAGCGCCAACGUUCUCAACUAUGGCACGCAAAACGCGUGCUCCGUUGAAUGGAGUUUGUCAUC, the “polymerase ribozyme fitness (log ratio)” value is reported as at most -4.2.
With GGAUCUUCUCGAUCUAACAAAAAAGACAAAUCUGCCACAAAGCUUGAAAGCAUCUUCGGAUGCAGAGGCGGCAGCCUUCGGUGGAGCGAUAGCGCCAACGUUCUCAACUAUGACACGCAAAAUGCGUGCUCCGCUGAAUGGAGUUUAUCAUG the “polymerase ribozyme fitness (log ratio)” value was -1.46.
For GGAUCUUCUCGAUCUAACAAAAAAGACAAAUCUGCCACAAAGCUUGAAAGCAUCUUCGGAUGCAGAGGCGGCAGCCUUCGGUGGCGCGAUAGCGCCAACGUUCUCAAUUAUGACACGCAAAACGCGUGCUCCGUUGAAUGGAGUUUAUCAUG, the “polymerase ribozyme fitness (log ratio)” value was at most -4.2.
With GGAUCUUCUCGAUCUAACAAAAAAGACAAAUCUGCCACAAAGCUUGAAAGCUUCUACGGAUGCAGAGGCGGCAGCCUACGGUGGCGCGAUAGCGCCAUCGUUCUCAACUAUGACACGCAAAACGCGUGCUCCGUUGAACGGAGUUUAUCAUG the “polymerase ribozyme fitness (log ratio)” value was at most -4.2.
In the case of GGAUCUUCUCGAUCUAACAAAAAAGACAAAUCUGCCACAAAGCUUGAAAGCAUCUUCGGAUGCAGAGGCGGCAGCCUUCGGUGGGGCGAUAGCGCCAUUGUUCUCAACUAUGACACGCAAAACGCGUGCUCCGUUGAAUGGAGUUUAUCAUG, the “polymerase ribozyme fitness (log ratio)” value is reported as -3.36.
In the case of GGAUCUUCUCGAUCUAACAAAAAAGACAAAUCUGCCACAAAGCUUGAAAGCAUCUUCGGAUGCAGAGGCGGCAGCCUUCGGUGGCGCGAUAGCGCUAGCGUUCUCAACUAUGACACGCAAAACGCGUGCUCCGUUGAAUGGAGUUUAUCAUG, the “polymerase ribozyme fitness (log ratio)” value is reported as -0.496.
In the case of GGAUCUUCUCGAUCUAACAAAAAAGACAAAUCUGCCACAAAGCUUGAAAGCAUCUUAGGAUGCAGAGGCGGCAGCCUUCGGUGGCGCGAUAGCGCCAACGUUCUCAACUAUGACACGCAAAACGCGUGCUCCGUUGAAUGGAGGUUAUCAUG, the “polymerase ribozyme fitness (log ratio)” value is reported as 0.472.
With GGAUCUUCUCGAUCUAACAAAAAAGACAAAUCUGCCACAAAGCUUGAAAGCAUCUUAGGAUGCAGAGGCGGCAGCCUUCGGUGGCGCGAUAGCGCCAACGUUCUCAACUAUGACACGCAAAACGCGAGCUCCGUUGAAUGGGAUUUAUCAUG the “polymerase ribozyme fitness (log ratio)” value was at most -4.2.
